Experiments:
[1] = molecular target: the molecule itself; assay: native gel or EMSA; 0.2 kbp DNA fragment with a single MORE site (10 nM) incubated overnight at 25 °C with graded OCT2 DBD (2-fold dilutions from 1 uM) in PBS; 4-20% gradient polyacrylamide gel; dimer assembled on DNA
OCT2 DBD (POU domain) [2] = molecular target: T1, OCT2 DBD (POU domain) (Homo sapiens, UniProt P09086 195-357); assay: fluorescence anisotropy; 0.20 M Na+, no poly[d(I-C)]; FP: 5 nM probe, 10 mM Bis-Tris pH 6.5, 0.01% BSA, 0.15-0.35 M NaCl, 25 C overnight, Hill fit with nH = 2 (macroscopic KD of dimer); EMSA: 10 nM DNA, PBS, 25 C o; conditions: protein: recombinant; tags: N-terminal His6 removed by thrombin; chain copies: 2; label: 5'-HEX; blunt; self-complementary, 2 copies of the strand
T1 sequence: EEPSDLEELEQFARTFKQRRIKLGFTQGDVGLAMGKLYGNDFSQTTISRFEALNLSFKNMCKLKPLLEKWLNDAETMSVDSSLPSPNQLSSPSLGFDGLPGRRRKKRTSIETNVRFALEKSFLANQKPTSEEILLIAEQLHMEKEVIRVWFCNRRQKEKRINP

OCT2 DBD (POU domain) [3] = molecular target: T1, OCT2 DBD (POU domain); assay: fluorescence anisotropy; 0.25 M Na+, no poly[d(I-C)]; FP: 5 nM probe, 10 mM Bis-Tris pH 6.5, 0.01% BSA, 0.15-0.35 M NaCl, 25 C overnight, Hill fit with nH = 2 (macroscopic KD of dimer); EMSA: 10 nM DNA, PBS, 25 C o; conditions: protein: recombinant; tags: N-terminal His6 removed by thrombin; chain copies: 2; label: 5'-HEX; blunt; self-complementary, 2 copies of the strand
OCT2 DBD (POU domain) [4] = molecular target: T1, OCT2 DBD (POU domain); assay: fluorescence anisotropy; 0.30 M Na+, no poly[d(I-C)]; FP: 5 nM probe, 10 mM Bis-Tris pH 6.5, 0.01% BSA, 0.15-0.35 M NaCl, 25 C overnight, Hill fit with nH = 2 (macroscopic KD of dimer); EMSA: 10 nM DNA, PBS, 25 C o; conditions: protein: recombinant; tags: N-terminal His6 removed by thrombin; chain copies: 2; label: 5'-HEX; blunt; self-complementary, 2 copies of the strand
OCT2 DBD (POU domain) [5] = molecular target: T1, OCT2 DBD (POU domain); assay: fluorescence anisotropy; 0.35 M Na+, no poly[d(I-C)]; FP: 5 nM probe, 10 mM Bis-Tris pH 6.5, 0.01% BSA, 0.15-0.35 M NaCl, 25 C overnight, Hill fit with nH = 2 (macroscopic KD of dimer); EMSA: 10 nM DNA, PBS, 25 C o; conditions: protein: recombinant; tags: N-terminal His6 removed by thrombin; chain copies: 2; label: 5'-HEX; blunt; self-complementary, 2 copies of the strand
OCT2 DBD (POU domain) [6] = molecular target: T1, OCT2 DBD (POU domain); assay: fluorescence anisotropy; 0.15 M Na+, 1 U poly[d(I-C)]; FP: 5 nM probe, 10 mM Bis-Tris pH 6.5, 0.01% BSA, 0.15-0.35 M NaCl, 25 C overnight, Hill fit with nH = 2 (macroscopic KD of dimer); EMSA: 10 nM DNA, PBS, 25 C o; conditions: protein: recombinant; tags: N-terminal His6 removed by thrombin; chain copies: 2; label: 5'-HEX; blunt; self-complementary, 2 copies of the strand
OCT2 DBD (POU domain) [7] = molecular target: T1, OCT2 DBD (POU domain); assay: fluorescence anisotropy; 0.175 M Na+, no poly[d(I-C)]; FP: 5 nM probe, 10 mM Bis-Tris pH 6.5, 0.01% BSA, 0.15-0.35 M NaCl, 25 C overnight, Hill fit with nH = 2 (macroscopic KD of dimer); EMSA: 10 nM DNA, PBS, 25 C o; conditions: protein: recombinant; tags: N-terminal His6 removed by thrombin; chain copies: 2; label: 5'-HEX; blunt; self-complementary, 2 copies of the strand
OCT2 DBD (POU domain) [8] = molecular target: T1, OCT2 DBD (POU domain); assay: fluorescence anisotropy; 0.20 M Na+, 1 U poly[d(I-C)]; FP: 5 nM probe, 10 mM Bis-Tris pH 6.5, 0.01% BSA, 0.15-0.35 M NaCl, 25 C overnight, Hill fit with nH = 2 (macroscopic KD of dimer); EMSA: 10 nM DNA, PBS, 25 C o; conditions: protein: recombinant; tags: N-terminal His6 removed by thrombin; chain copies: 2; label: 5'-HEX; blunt; self-complementary, 2 copies of the strand
OCT2 DBD (POU domain) [9] = molecular target: T1, OCT2 DBD (POU domain); assay: fluorescence anisotropy; 0.25 M Na+, 1 U poly[d(I-C)]; FP: 5 nM probe, 10 mM Bis-Tris pH 6.5, 0.01% BSA, 0.15-0.35 M NaCl, 25 C overnight, Hill fit with nH = 2 (macroscopic KD of dimer); EMSA: 10 nM DNA, PBS, 25 C o; conditions: protein: recombinant; tags: N-terminal His6 removed by thrombin; chain copies: 2; label: 5'-HEX; blunt; self-complementary, 2 copies of the strand
OCT2 DBD (POU domain) [10] = molecular target: T1, OCT2 DBD (POU domain); assay: fluorescence anisotropy; 0.30 M Na+, 1 U poly[d(I-C)]; FP: 5 nM probe, 10 mM Bis-Tris pH 6.5, 0.01% BSA, 0.15-0.35 M NaCl, 25 C overnight, Hill fit with nH = 2 (macroscopic KD of dimer); EMSA: 10 nM DNA, PBS, 25 C o; conditions: protein: recombinant; tags: N-terminal His6 removed by thrombin; chain copies: 2; label: 5'-HEX; blunt; self-complementary, 2 copies of the strand
OCT2 DBD (POU domain) [11] = molecular target: T1, OCT2 DBD (POU domain); assay: fluorescence anisotropy; 0.175 M Na+, 1 U poly[d(I-C)]; FP: 5 nM probe, 10 mM Bis-Tris pH 6.5, 0.01% BSA, 0.15-0.35 M NaCl, 25 C overnight, Hill fit with nH = 2 (macroscopic KD of dimer); EMSA: 10 nM DNA, PBS, 25 C o; conditions: protein: recombinant; tags: N-terminal His6 removed by thrombin; chain copies: 2; label: 5'-HEX; blunt; self-complementary, 2 copies of the strand
OCT2 DBD (POU domain) [12] = molecular target: T1, OCT2 DBD (POU domain); assay: fluorescence anisotropy; 0.15 M Na+, no poly[d(I-C)]; text gives 3.2 +/- 1.4 nM; FP: 5 nM probe, 10 mM Bis-Tris pH 6.5, 0.01% BSA, 0.15-0.35 M NaCl, 25 C overnight, Hill fit with nH = 2 (macroscopic KD of dimer); EMSA: 10 nM DNA, PBS, 25 C o; conditions: protein: recombinant; tags: N-terminal His6 removed by thrombin; chain copies: 2; label: 5'-HEX; blunt; self-complementary, 2 copies of the strand
OCT2 DBD (POU domain) [13] = molecular target: T1, OCT2 DBD (POU domain); assay: fluorescence anisotropy; 0.35 M Na+, 1 U poly[d(I-C)]; text gives 0.18 +/- 0.06 uM; FP: 5 nM probe, 10 mM Bis-Tris pH 6.5, 0.01% BSA, 0.15-0.35 M NaCl, 25 C overnight, Hill fit with nH = 2 (macroscopic KD of dimer); EMSA: 10 nM DNA, PBS, 25 C o; conditions: protein: recombinant; tags: N-terminal His6 removed by thrombin; chain copies: 2; label: 5'-HEX; blunt; self-complementary, 2 copies of the strand

B1: OCT2 DBD (DNA-binding domain, POU domain, of human POU factor OCT2) (domain or fragment, UniProt P09086 195-357, looked up)
chain: T1 sequence
notes: Cloned into NdeI/BamHI of pET15b; residues of the vector may be left at the N-terminus after thrombin cleavage (surmised); the linker is not resolved in the structure; also called POU2F2; OCT DBD; source: E. coli BL21(DE3)pLysS, purified (Ni-NTA, thrombin cleavage, Sepharose SP, Superdex 75); not shown: His6, N-terminal, cleaved
**Q.** B1 was tested. Which “stoichiometry N” value [1] did it give?
**A.** 2

B2: MORE 22-bp, HEX-labelled (dsDNA)
DNA 1: TCCTCATGCATATGCATGAGGA
DNA 2: TCCTCATGCATATGCATGAGGA
**Q.** What does the source list for B2?
**A.** Kd (OCT2 DBD (POU domain) [2]): 29 ± 9 nM; Kd (OCT2 DBD (POU domain) [3]): 88 ± 18 nM; Kd (OCT2 DBD (POU domain) [4]): 560 ± 100 nM; Kd (OCT2 DBD (POU domain) [5]): 1200 ± 300 nM; Kd (OCT2 DBD (POU domain) [6]): 5.5 ± 1.3 nM; Kd (OCT2 DBD (POU domain) [7]): 9.7 ± 3.7 nM; Kd (OCT2 DBD (POU domain) [8]): 16 ± 7 nM; Kd (OCT2 DBD (POU domain) [9]): 41 ± 13 nM; Kd (OCT2 DBD (POU domain) [10]): 71 ± 19 nM; Kd (OCT2 DBD (POU domain) [11]): 11 ± 4 nM; Kd (OCT2 DBD (POU domain) [12]): 3.8 ± 1.4 nM; Kd (OCT2 DBD (POU domain) [13]): 190 ± 60 nM

From paper PMC11873960, “Coupled Heterogeneity to Dimeric Site-Specific Binding by the POU-Family Transcription Factor OCT2” (The Journal of Physical Chemistry. B, 2025)
